The source of these data is the nanobody polyreactivity screen of Harvey et al. (2022).

This series in a line: yeast display, Sf9 membrane polyspecificity reagent, FACS + sequencing; frameworks hold sequencing errors. The essentials: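 Nanobodies from a synthetic yeast display library (Saccharomyces cerevisiae BJ5465), induced 36–48 hours with galactose, were stained 1 hour at 4 °C with 10% biotinylated, detergent-solubilized Sf9 membrane reagent, enriched on streptavidin microbeads, then FACS-sorted. Anti-HA (expression) and streptavidin (reagent binding) fluorescence set low and high (top ~1%) gates. Polyreactivity labels come from the gate of origin. Genes were colony-PCR amplified, MiSeq 2 × 250 sequenced and filtered by CDR length.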
On to “QVQLVESAGGLVQAGGSLRLSCAASGRTLTGNALGWYRQAPGKESELVAAITARGGSTKYADSVKGRFTISRDNAKNTVYFLMNSLKPEDTAVFYCAAGCWYYLHMDYWGQGTQVTVSS”, for which the “polyreactivity (PSR sort gate)” value is “high polyreactivity”.

With “QVQLVESAGGLVQAGGSLRLSCAASGRTLTRYTMGWYRQAPGKERELVAAITSGGSTYYADSVKGRFTISRDNAKNTVYLQKNSLKPEDTAVYYCNARTPWWSFSITEYGYWGQGTLVTVSS”, the “polyreactivity (PSR sort gate)” value is listed as “high polyreactivity”.

Turning to “QVQLVESAGGLVQAGGSLRLSCAASGSIFAGNVMGWYRQEPGKEWELVAAISRRGGRTYYADSVKGRFTISRDNAKNTVYLQMNSLKPEETAVYYCAARRDPVLCKSDYWGQGTQVTVSS”, the “polyreactivity (PSR sort gate)” value is reported as “high polyreactivity”.

Consider “QVQLVESAGGLVQAGGSLRLSCAASGSIFKDYAMGWYRQAPGKERELVAAITSGTSTTYADSVKGRFTISRDNAKYTVYLPMNSLKPDDTAVYYCAADYYLRKTRFESWGQGTQVTVSP”, for which the “polyreactivity (PSR sort gate)” value is “low polyreactivity”.

In the case of “QVQLVESAGGLVQAGGSLRLSCAASGSIFPGYAMGWYRQAPVKERELVATITWSGGSTYYADSVKGRFTISRDNAKNSVYLQMNILKPEDTAVYYCNADSNWYYQWNYYGLYDYWGQGTQVTVSS”, the “polyreactivity (PSR sort gate)” value is listed as “low polyreactivity”.

Regarding “QVQLVESAGGLVQAGGSLRLSCAASGSIFRLNALGWSRQQPGQVRELVAAITWSDSSTYYADSVKGRFTISRDTAKNTVYLQMNSLKPEDTAVSYCAGDPQSYKYDYWGQGTQVTVSS”, the “polyreactivity (PSR sort gate)” value was “low polyreactivity”.

In the case of “QVQLVESAGGLVQAGGSLRLSCAASGSIFVPNVMGWYRQAPGKERELVATITRSTSTYYADSVKGRFTISRDNAKNTVYLQMNSLKPEDTAVYYCAAVWEWYSKYTRFYYWGQGTQVTVSS”, the “polyreactivity (PSR sort gate)” value is “high polyreactivity”.

With “QVQLVESAGGLVQAGGSLRLSCAASGSIFVRNAMGWYRQAPGKERELVARISSRGGSTYYADSVKGRFTISRDNAKNTVYLQMISLKPEDTAVYYSNRDRTWQTNDYWGQGTQVTVSS”, the “polyreactivity (PSR sort gate)” value is on record as “high polyreactivity”.

With “QVQLVESAGGLVQAGGSLRLSCAASGSILYKNAMGWYRQAPGKERELVAAIRSGGSTYYADSVKGRFTISRDNAINTVYLQMNSLKPEDTAVYYCYARTFSHGRYDYWGQGTQVTVSS”, the “polyreactivity (PSR sort gate)” value is “low polyreactivity”.

With “QVQLVESAGGLVQAGGSLRLSCAASGSTFRYYAMGWSRQAPGKESELVAVISTSGNTYYADSVKGRFTISRDNAKNSVYLQMNSLIPEDTAVYYCAARGVGGQISQEYDYWGKGTQVTVSS”, the “polyreactivity (PSR sort gate)” value is “low polyreactivity”.

Regarding “QVQLVESAGGLVQAGGSLRLSCAASGSTFVTYDMGWYRQAPGKERELVAAIRYSDGSTYYADSVKGRFTISRDNAKNTVYRQMNSLKPEDTAVYYCAADLGNYDYYGYVRYDYWGQGTQVTVSS”, the “polyreactivity (PSR sort gate)” value is on record as “low polyreactivity”.

With “QVQLVESAGGLVQAGGSLRLSCAASGSTFYPNAMGWYRQAPGKERELVAAISRGTRTKYADSVKGRFTISRDNAKNTVYLQMNSMKPEDTAVYYCAPLTYQSYWSVDGYYYWGQGTQVTVSS”, the “polyreactivity (PSR sort gate)” value is given as “high polyreactivity”.

With “QVQLVESAGGLVQAGGSLRLSCADSGSISTVYAMGWYRPAPGKERELVAAISWSGGYTYYADTVKGRFTISRDNEKNTVYLQMNSVKPEDTAFYYCDAEGYLVGSRWGPCYGDYWGQGTQVTGSS”, the “polyreactivity (PSR sort gate)” value is reported as “high polyreactivity”.

As to “QVQLVESAGGLVQAGGSLRLSCAHSGITYTRYAMGWYRHAPGKESELVAAISSGGRTNYADSVKGRFTISRDNAKNTVYLQMNTLKPEDTAVYYCNAAGHRWYPRYHYWGQGTQVTVSS”, the “polyreactivity (PSR sort gate)” value is recorded as “high polyreactivity”.

In the case of “QVQLVESAGGLVQAGGSLRLSCAPSGSTFYHNVMGWYSPAPGKERELVASIDTGDSTNYADSVKGRFTISRDNAKNTVYLQMNSLKPEDTAVYYCARSQAVYDGWFAKFGYWGQGTQVTVSS”, the “polyreactivity (PSR sort gate)” value is “low polyreactivity”.

Turning to “QVQLVESAGGLVQAGGSLRLSCASSGSTFQKYAMGWYRQAPGKESELVARISSGGSTTNADYVKGRFTISRDNAKYTVYIQMTSLKPEDTAVYYCAARLVVAQPHQWVVYLNTYYYWGQGTQVTVSS”, the “polyreactivity (PSR sort gate)” value was “high polyreactivity”.
